{"source": "paper PMC7130864", "origin": "cited, not measured here", "molecular_target": "Kv1.3 (Homo sapiens) (UniProt P22001)", "sequence (P22001 whole entry)": "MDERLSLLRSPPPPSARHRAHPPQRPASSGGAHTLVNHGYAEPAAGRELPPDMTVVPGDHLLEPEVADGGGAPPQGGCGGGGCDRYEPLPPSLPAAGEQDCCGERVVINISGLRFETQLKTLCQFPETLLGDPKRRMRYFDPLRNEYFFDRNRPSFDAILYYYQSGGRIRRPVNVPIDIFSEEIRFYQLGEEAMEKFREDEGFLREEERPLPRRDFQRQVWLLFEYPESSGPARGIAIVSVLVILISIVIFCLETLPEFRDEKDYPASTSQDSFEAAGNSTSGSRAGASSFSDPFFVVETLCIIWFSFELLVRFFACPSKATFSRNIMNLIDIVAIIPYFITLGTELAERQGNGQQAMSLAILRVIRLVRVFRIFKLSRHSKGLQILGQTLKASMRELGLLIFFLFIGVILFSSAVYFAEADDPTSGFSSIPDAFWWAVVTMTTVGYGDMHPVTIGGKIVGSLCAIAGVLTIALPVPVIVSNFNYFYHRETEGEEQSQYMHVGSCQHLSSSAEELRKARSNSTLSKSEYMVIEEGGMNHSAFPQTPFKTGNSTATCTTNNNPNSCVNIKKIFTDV"}
{"substance": "BmKTX (from UniProt Q9NII7)", "values": [{"measurement": "Kd", "result": 0.2, "unit": "nM"}]}
